Reference: US8620595B2, “Methods for determining the retention of peptides in reverse phase chromatography using linear solvent strength theory” (University of Manitoba, priority 2010, dated 2013)

Assay: Isocratic elution measurement of slope S (log k vs. φ plots), RP-HPLC with UV detection
Assay type: physicochemical
Details: Luna C18(2) column, water/acetonitrile with 0.1% formic acid, 22-23° C.
Experimental: Chromatography. All chromatographic experiments were conducted at a controlled temperature of 22-23° C. For isocratic measurement of the slope values, a micro-Agilent 1100 Series system (Agilent Technologies, Wilmington, Del.), was used with a 1 mm×100 mm 5 μm Luna C18(2) (Phenomenex, Torrance, Calif.) column and a UV detector operated at 214 nm. Both eluents A (water) and B (acetonitrile) contained 0.1% formic acid as ion-pairing modifier. Stock solutions of the 11 standard peptides (˜1 mg/ml) were prepared by dissolving each peptide in 1 ml of 0.1% FA in water or a 20% acetonitrile solution. Ten microliters of sample was injected. Individual peptides were diluted to provide ˜0.5-1 μg injection of each component using a 10 μl loop. The dead volume of the column and connecting tubings was determined by injecting a non-retained compound (water) and measuring the elution time of the negative peak at a 150 μL/min flow rate. Retention factors for isocratic elution were calculated using the formula: k=(tR−t0)/t0c; where tR is the retention time, t0 is the system (column and tubings) dead time, and t0c is the column dead time. Additional details of measuring S-values via constructing log k vs. φ plots are provided elsewhere.^24 The nano-LC MS/MS experiments were conducted using splitless Tempo LC system (Eksigent, Dublin, Calif.) with 20 μL sample injection via a 300 μm×5 mm PepMap100 (Dionex, Sunnyvale, Calif.) trap-column and a 100 μm×200 mm analytical column packed with 5 μm Luna C18(2) (Phenomenex, Torrance, Calif.). Tryptic digests of the mixtures were spiked with calibrating peptides (see Table 1) as described above, injected on the trap-column using buffer A as a carrier and separated using 0.1875, 0.375 and 0.75 percent acetonitrile per minute linear gradients starting from 0.5% acetonitrile at 500 nL/min flow rate. The composition of both eluents A and B was identical to one described above for normal-flow system. Gradient programs consisted of a 0.5-40% linear increase of buffer B in 213.2, 106.6 and 53.3 minutes, respectively. After each run the gradient columns were washed with 80% B for 3 minutes and equilibrated with the starting A:B ratio for 18 minutes.
Accordingly, for the determination of S-values of the set of synthetic peptides we used an isocratic elution procedure, despite it being extremely labor intense.^23 Isocratic measurements consist of determining retention times of peptides at several constant acetonitrile concentrations and plotting experimental Eqn. 1 for each peptide.
These two ways of measurement have been combined to provide a highly accurate and fast way of determining S for an extensive sets of peptides (see FIG. 3). First, precise isocratic measurement of S is performed in normal flow conditions with UV detection for a set of synthetic “S-calibrating” peptides. Similar to the previously described peptide mixture P1-P6 designed to cover wide range of hydrophobicities, these peptides were chosen to cover wide range of S-values (Table 1). Second—a tryptic digest of the bovine proteins mixture (model mixture) is spiked with the “S-calibrating” peptides and run under two different gradient slopes in nano-flow RP-HPLC MS: 0.75 and 0.1875% acetonitrile per minute in our case. Third—retention times are assigned for all identified species. Fourth—retention time shifts in acetonitrile percentage (ACN %) units relative to P3 were determined as: Δ=(tR 0.75−tRP3 0.75)*0.75−(tR 0.1875−tRP3 0.1875)*0.1875 (3); where tR 0.75 and tRP3 0.75 are the retention times of any peptide and reference P3 at 0.75% per minute, and tR 0.1875 and tRP3 0.1875 are the retention times of any peptide and reference P3 at 0.1875% acetonitrile per minute gradient, respectively. Fifth—an experimental Δ vs. S curve was plotted for S-calibrating peptides (FIG. 3). Sixth—S values were extracted from this dependence for all peptides observed in both nano-RP-HPLC MS runs by extrapolation of experimental Δ on this plot.

In order of rising “Slope (S in the basic LSS equation)” value:
1. LLLGGDFR [Peptide 3, synthetic S-calibrating peptide]  21.46
2. LLLLDFR [Peptide 4, synthetic S-calibrating peptide]  21.78
3. LLLLLDFR [Peptide 5, synthetic S-calibrating peptide]  22.76
4. LLGGGGDFR [Peptide 2]  24.76
5. LASAADFR [Peptide 6, synthetic S-calibrating peptide]  27.07
6. LGGGGGGDFR [Peptide 1, synthetic S-calibrating peptide]  28.2
7. LAGGGSASSSADAAAFR [Peptide 9, synthetic S-calibrating peptide]  34.8
8. LASAAHFR [Peptide 7, synthetic S-calibrating peptide]  35.59
9. LAGGGSASSSAHAAAFR [Peptide 11, synthetic S-calibrating peptide]  44.66

Same assay, conditions: Luna C18(2) column, water/acetonitrile with 0.1% formic acid, 22-23° C., listed as P3

In the case of LLGGGGDFR [Peptide 2], the “Slope (S in the basic LSS equation)” value is reported as 24.76.
